B1: AHBP-1b (full-length, two-hybrid prey in pJG4-5) (other)
chain: MADTSPRTDVSTDDDTDHPDLGSEGALVNTAASDSSDRSKGKMDQKTLRRLAQNREAARKSRLRKKAYVQQLENSRLKLTQLEQELQRARQQGVFISGTGDQAHSTGGNGALAFDAEHSRWLEEKNKQMNELRSALNAHAGDSELRIIVDGVMAHYEELFRIKSNAAKNDVFHLLSGMWKTPAERCFLWLGGFRSSELLKLLANQLEPMTERQLMGINNLQQTSQQAEDALSQGMESLQQSLADTLSSGTLGSSSSGNVASYMGQMAMAMGKLGTLEGFIRQADNLRLQTLQQMIRVLTTRQSARALLAIHDYFSRLRALSSLWLARPRE

Assay [1] addresses full-length tomato NPR1 homolog (tomato). The assay is described as follows: yeast two-hybrid, β-galactosidase reporter.
The target of assay [2] is full-length A. thaliana NPR1 (two-hybrid bait in pEG202) (Arabidopsis thaliana) (UniProt P93002). The assay is described as follows: yeast two-hybrid, β-galactosidase reporter.
The target in assay [3] is NPR1 1-432 (pEGNPR11-432) (Arabidopsis thaliana) (UniProt P93002). The experiment in a line: yeast two-hybrid, β-galactosidase reporter.
The target in assay [4] is NPR1 178-593 (pEGNPR1178-593) (Arabidopsis thaliana) (UniProt P93002). The experiment in a line: yeast two-hybrid, β-galactosidase reporter.
The next assay concerns the target npr1-1 mutant NPR1 bait (Arabidopsis thaliana, UniProt P93002). The assay is described as follows: yeast two-hybrid, β-galactosidase activity.
The next assay addresses npr1-2 mutant NPR1 bait (Arabidopsis thaliana, UniProt P93002). The experiment in a line: yeast two-hybrid, β-galactosidase activity.
Assay [5] deals with B1. The experiment in a line: yeast two-hybrid, β-galactosidase activity.

Experimental findings from US6137031, “DNA binding proteins that interact with NPR1” (Duke University, dated 2000) are described below.

On to NIF1 (NPR-1-Interacting Factor 1), for which, in assay [1], the units of β-galactosidase activity was 1290 units.
Molecule “OBF5 (full-length, two-hybrid prey in pJG4-5) (from UniProt Q39163)” yielded a units of β-galactosidase activity in assay [2] of 7.6 units.
B1: the results for the units of β-galactosidase activity in assay [3], in assay [4] and in assay [2] were 522 units, 17.6 units and 673 units, respectively. For the same molecule, the binding result in the assay with npr1-1 mutant NPR1 bait and in the assay with npr1-2 mutant NPR1 bait was “no binding” throughout.

B2: TGA6 (full-length, two-hybrid prey in pJG4-5) (other)
chain: MADTSSRTDVSTDGDTDHRDLGSDRGHMHAAASDSSDRSKDKLDQKTLRRLAQNREAARKSRLRKKAYVQQLENSRLKLTQLEQELQRARQQGVFISSSGDQAHSTGGNGALAFDAEHSRWLEEKNRQMNELRSALNAHAGDTELRIIVDGVMAHYEELFRIKSNAAKNDVFHLLSGMWKTPAERCFLWLGGFRSSELLKLLANQLEPMTERQVMGINSLQQTSQQAEDALSQGMESLQQSLADTLSSGTLGSSSSDNVASYMGQMAMAMGQLGTLEGFIRQADNLRLQTLQQMLRVLTTRQSARALLAIHDYSSRLRALSSLWLARPRE
As for B2, in assay [2], the units of β-galactosidase activity is 372 units. Besides, the binding result with npr1-1 mutant NPR1 bait and in the assay with npr1-2 mutant NPR1 bait was “no binding” each time.

B3: NPR1 1-177 (pEGNPR11-177) (other)
chain: MDTTIDGFADSYEISSTSFVATDNTDSSIVYLAAEQVLTGPDVSALQLLSNSFESVFDSPDDFYSDAKLVLSDGREVSFHRCVLSARSSFFKSALAAAKKEKDSNNTAAVKLELKEIAKDYEVGFDSVVTVLAYVYSSRVRPPPKGVSECADENCCHVACRPAVDFMLEVLYLAFIF
B3: the binding result in assay [5] is “no binding”.
